Where a chain is given by its changes, count along the chain named. Read-outs that look alike come from different tables or passages of the source.
T1: human CX3CR1 (human, UniProt P49238 1-355)
T1 sequence: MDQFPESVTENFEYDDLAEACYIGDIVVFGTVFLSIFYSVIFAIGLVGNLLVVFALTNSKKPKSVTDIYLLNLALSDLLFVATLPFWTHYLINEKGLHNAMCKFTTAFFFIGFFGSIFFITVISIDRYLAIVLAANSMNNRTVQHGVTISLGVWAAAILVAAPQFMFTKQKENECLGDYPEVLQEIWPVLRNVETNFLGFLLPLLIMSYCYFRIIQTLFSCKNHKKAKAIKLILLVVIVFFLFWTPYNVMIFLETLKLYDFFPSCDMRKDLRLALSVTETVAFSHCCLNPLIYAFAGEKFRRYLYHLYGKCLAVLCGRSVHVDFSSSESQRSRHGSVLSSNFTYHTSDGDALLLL

T2: cynomolgus CX3CR1 (cynomolgus, UniProt P49238 1-355 (human entry))
T2 construct: transiently expressed on HEK293T cells; also called cyCX3CR1; cyno CX3CR1
T2 chain: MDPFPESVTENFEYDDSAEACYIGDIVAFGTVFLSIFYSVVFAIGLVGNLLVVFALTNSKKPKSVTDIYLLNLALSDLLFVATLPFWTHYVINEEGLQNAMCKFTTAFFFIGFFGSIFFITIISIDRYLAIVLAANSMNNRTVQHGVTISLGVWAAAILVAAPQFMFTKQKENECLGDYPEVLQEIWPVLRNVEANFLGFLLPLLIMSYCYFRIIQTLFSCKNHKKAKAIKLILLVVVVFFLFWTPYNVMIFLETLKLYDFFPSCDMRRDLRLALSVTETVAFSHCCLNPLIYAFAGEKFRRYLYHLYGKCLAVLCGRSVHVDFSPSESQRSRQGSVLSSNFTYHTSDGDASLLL

B1: CX3CR1BIIPMP54A7 (VHH)
VHH: EVQLVESGGGSVQAGESLRLSCAASGTIFSSNAMAWYRQAPGKQRDLVAGINSVDITKYADSVKGRFTISRDNAKNTVYLQMNSLKPEDTAVYYCTSDPRRGWNTRYWGQGTQVTVSS
notes: also called 54A07; not shown: C-terminal c-myc and His6 tags
B2: CX3CR1BIIPMP54A12 (VHH)
VHH: B1 VHH with T27S, G50V, D55G, R71G, P99A, N104D
notes: also called CX3CR1BII54A12; not shown: C-terminal c-myc and His6 tags
B3: CX3CR1BII009 (VHH)
chain: KVQLVESGGGLVQPGGSLRLSCATSGTIFSNNAMGWYRQAPGKKRDLVASISSSGSTNYADSVKGRFTVSRDNDKNTGYLQMNSLKPEDTGVYYCTLDARRGWNTAYWGQGAQVTVSSGGGGSGGGGSGGGGSGGGGSGGGGSGGGGSGGGGSEVQLVESGGGLVQAGGSLRLSCVASGRTFSSYAMGWFRQAPGKERAFVAGISGSASRKYYADSVKGRFTVSRDNARNTVYLQMNSLKPEDTAVYYCAASNSYPKVQFDYYGQGTQVTVSS
notes: expressed in E. coli as described for the monovalent VHHs
B4: CX3CR1BII007 (VHH)
chain: EVQLVESGGGLVQAGGSLRLSCVASGRTFSSYAMGWFRQAPGKERAFVAGISGSASRKYYADSVKGRFTVSRDNARNTVYLQMNSLKPEDTAVYYCAASNSYPKVQFDYYGQGTQVTVSSGGGGSGGGGSGGGGSGGGGSGGGGSGGGGSGGGGSKVQLVESGGGLVQPGGSLRLSCATSGTIFSNNAMGWYRQAPGKKRDLVASISSSGSTNYADSVKGRFTVSRDNDKNTGYLQMNSLKPEDTGVYYCTLDARRGWNTAYWGQGAQVTVSS
notes: expressed in E. coli as described for the monovalent VHHs (c-myc, His6 tags there)
B5: CX3CR1BIIPMP18E6 (VHH)
VHH: KVQLVESGGGLVQPGGSLRLSCATSGTIFSNNAMGWYRQAPGKKRDLVASISSSGSTNYADSVKGRFTVSRDNDKNTGYLQMNSLKPEDTGVYYCTLDARRGWNTAYWGQGAQVTVSS
notes: family 13; also called 18E06; CX3CR1BII18E06; not shown: C-terminal c-myc and His6 tags

What was measured:
human CX3CR1 [1] = molecular target: T1, human CX3CR1; assay: cell-based or functional assay
cynomolgus CX3CR1 [2] = molecular target: T2, cynomolgus CX3CR1; assay: FACS binding, cynomolgus against human CX3CR1
Protocol: (§1) Initially, a FACS based binding setup was used to evaluate the cynomolgus cross reactivity. For this, the VHHs were incubated with the respective cells for 30 minutes at 4° C. followed by three wash steps and subsequently incubated with the detection reagents. As detection, a mouse anti-cmyc antibody (Serotec, MCA2200) followed by a goat anti-mouse antibody coupled to PE (Jackson 115-116-071) was used, each incubation for 30 minutes at 4° C., followed by three wash steps.

human CX3CR1 [3] = molecular target: T1, human CX3CR1; assay: A647-fractalkine competition FACS, CHO-huCX3CR1
Method in brief: (§2)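 VHHs compete with Alexa647-fractalkine for CX3CR1 on CHO, BA/F3 or transiently transfected HEK293T cells, with the labeled-ligand amount varying between setups. After 1 h at 4 °C and washing, PI-negative intact cells were gated by flow cytometry. IC50 follows from percentage block, with the window set by no/irrelevant-VHH and excess cold fractalkine controls.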

human CX3CR1 [4] = molecular target: T1, human CX3CR1; assay: A647-fractalkine competition FACS, BA/F3-huCX3CR1
Method in brief: as §2

human CX3CR1 [5] = molecular target: T1, human CX3CR1; assay: A647-fractalkine competition FACS, HEK293-huCX3CR1
Method in brief: as §2

human CX3CR1 [6] = molecular target: T1, human CX3CR1; assay: A647-fractalkine competition FACS, HEK293T human CX3CR1
Method in brief: (§3)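 VHHs competed with Alexa647-labelled human fractalkine (degree of labelling 1, at its EC30 concentration) for human or cynomolgus CX3CR1 transiently expressed in HEK293T cells, with transfections matched by ligand binding. A647 fluorescence of intact, PI-negative cells was read by flow cytometry. % block was taken against no-VHH and excess cold fractalkine controls, giving IC50 values.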

human CX3CR1 [7] = molecular target: T1, human CX3CR1; assay: FACS binding on human CX3CR1 cells, anti-c-myc detection
Protocol: as §1

cynomolgus CX3CR1 [8] = molecular target: T2, cynomolgus CX3CR1; assay: A647-fractalkine competition FACS, HEK293T cynomolgus CX3CR1
Method in brief: as §3

cynomolgus CX3CR1 [9] = molecular target: T2, cynomolgus CX3CR1; assay: FACS binding on cynomolgus CX3CR1 cells, anti-c-myc detection
Protocol: as §1

cynomolgus CX3CR1 [10] = molecular target: T2, cynomolgus CX3CR1; assay: A647-fractalkine competition FACS, cynomolgus against human CX3CR1
Method in brief: as §3

human CX3CR1 [11] = molecular target: T1, human CX3CR1; assay: periplasmic extract, A647-fractalkine competition FACS, CHO-huCX3CR1
Method in brief: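 Periplasmic VHH extracts competed with Alexa647-fractalkine (EC30, 1 nM; 3 nM initially) for binding to live or frozen CHO cells overexpressing human CX3CR1, 1 h at 4 C. FACS read on intact, PI-negative cells; percent block derived using no-VHH, irrelevant-VHH and excess cold fractalkine controls.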

human CX3CR1 [12] = molecular target: T1, human CX3CR1; assay: cell-based or functional assay; remark: listed apart in the source
human CX3CR1 [13] = molecular target: T1, human CX3CR1; assay: FACS binding, HEK293T human CX3CR1
cynomolgus CX3CR1 [14] = molecular target: T2, cynomolgus CX3CR1; assay: FACS binding, HEK293T cynomolgus CX3CR1
cynomolgus CX3CR1 [15] = molecular target: T2, cynomolgus CX3CR1; assay: FACS binding, cynomolgus against human CX3CR1
human CX3CR1 [16] = molecular target: T1, human CX3CR1; assay: A647-fractalkine competition FACS, CHO-huCX3CR1; remark: listed apart in the source
Text: Periplasmic extracts were screened in a human CX3CR1/human Fractalkine FACS competition assay to assess the blocking capacity of the expressed VHHs. Human CX3CR1 was presented on CHO cells overexpressing CX3CR1. Both a setup using cells harvested from an actively growing culture and a setup using frozen cells was used. As a detection reagent labeled fractalkine was used (R&D Systems, Minneapolis, Minn., USA) labeled with alexa647 (A647-Fractalkine) at a degree of labeling of 1. To setup the assay, first a titration series of the labeled fractalkine was performed on the CHO-huCX3CR1 cells in order to determine the EC50 value for binding. Initially screening was performed at a higher concentration of fractalkine (3 nM) to increase the assay robustness. To increase the sensitivity of the screening to a maximum, the EC30 concentration (1 nM) was chosen for subsequent screening. In brief 50 μl of periplasmic extract was added to 6 nM labeled fractalkine (50 μ;) and 200 000 CHO-huCX3CR1 cells. After one hour incubation at 4 C, cells were washed three times before read out was performed on a FACS Array (Becton Dickinson). First a gate was set on the intact cells as determined from the scatter profile. Next, dead cells were gated out by their fluorescence profile from the PI stain (Sigma, St Louis, US). The fluorescence profile from the alexa647 label was determined for each sample and used for calculation of blocking capacity. As controls, conditions were taken along where there was no VHH present in the peri extract or a known irrelevant VHH and samples were included where excess cold fractalkine was included. For each sample the percentage block was determined using the control samples to determine the assay window.
The inhibition of ligand binding to human CX3CR1 was investigated for the different formats as described in Example 4. For this characterization the BA/F3-huCX3CR1 cell line was used showing stable expression of the human CX3CR1 receptor. The alexa647 labeled ligand fractalkine was used at its EC30 concentration and thereby obtained IC50 values are reflective of the Ki values.

human CX3CR1 [17] = molecular target: T1, human CX3CR1; assay: competition FACS, BA/F3-huCX3CR1; competitor alexa647-labeled 66B02
Text: A competitive binding experiment was setup in order to determine whether the VHHs bind overlapping epitopes on CX3CR1. For this, the VHH 66B02 labeled with alexa647 was used in a competition FACS on the BA/F3 cells expressing huCX3CR1. Representative VHHs from the three functional families were used as competitors for the binding of the labeled 66B02.

Row | Binder | % block, fractalkine induced chemotaxis (human CX3CR1 [1]) | IC50, fractalkine induced chemotaxis (human CX3CR1 [1]) | ratio (cynomolgus/human EC50) (cynomolgus CX3CR1 [2]) | % block (human CX3CR1 [3]) | IC50 (human CX3CR1 [3]) | % block (human CX3CR1 [4]) | IC50 (human CX3CR1 [4]) | % block (human CX3CR1 [5]) | IC50 (human CX3CR1 [5]) | % block (human CX3CR1 [6]) | IC50 (human CX3CR1 [6]) | EC50 (human CX3CR1 [7]) | % block (cynomolgus CX3CR1 [8]) | IC50 (cynomolgus CX3CR1 [8]) | EC50 (cynomolgus CX3CR1 [9]) | ratio (cynomolgus/human IC50) (cynomolgus CX3CR1 [10]) | % block (human CX3CR1 [11]) | % block, fractalkine induced chemotaxis (human CX3CR1 [12]) | IC50, fractalkine induced chemotaxis (human CX3CR1 [12]) | EC50 (human CX3CR1 [13]) | other results
1 | B1 | 45% | 50 nM | 0.1 | 78% | 11 nM | 81% | 15 nM | 52% | 23 nM | 52% | 23 nM | 540 nM | 69% | 280 nM | 30 nM | 12.3 | 68.9% |  |  |  | 
2 | B2 | 84% | 80 nM | 3.3 | 104% | 2.1 nM | 100% | 4 nM | 96% | 6.8 nM | 96% | 6.8 nM | 35 nM | 94% | 67 nM | 110 nM | 9.85 | 93.8% |  |  |  | 
3 | B3 |  |  |  |  |  |  |  |  |  |  |  |  |  |  |  |  |  | 79% | 20 nM | 2 nM | EC50 (cynomolgus CX3CR1 [14]): 6.8 nM; ratio (cynomolgus/human EC50) (cynomolgus CX3CR1 [15]): 3.3; % block (human CX3CR1 [16]): 91%; IC50 (human CX3CR1 [16]): 0.7 nM
4 | B4 |  |  |  |  |  |  |  |  |  |  |  |  |  |  |  |  |  | 101% | 4 nM | 0.31 nM | EC50 (cynomolgus CX3CR1 [14]): 48 nM; ratio (cynomolgus/human EC50) (cynomolgus CX3CR1 [15]): 154; % block (human CX3CR1 [16]): 100%; IC50 (human CX3CR1 [16]): 0.38 nM
5 | B5 | 17% |  | 9 | 33% | 1.8 nM | 71% | 2.8 nM |  |  |  |  | 1.5 nM |  |  | 14 nM |  | 53.1% |  |  |  | % block (human CX3CR1 [17]): 100%; IC50 (human CX3CR1 [17]): 2.3 nM
